Data taken from patent US20070207158A1 (BOARD OF REGENTS OF THE UNIVERSITY OF OKLAHOMA, published 2007).

B1: ATF-methioninase fusion protein (other)
chain: SNELHQVPSNCDCLNGGTCVSNKYFSNIHWCNCPKKFGGQHCEIDKSKTGSGSGSRDSHNNTGFSTRAIHHGYDPLSHGGALVPPVYQTATYAFPTVEYGAACFAGEEAGHFYSRISNPTLALLEQRMASLEGGEAGLALASGMGAITSTLWTLLRPGDELIVGRTLYGCTFAFLHHGIGEFGVKIHHVDLNDAKALKAAINSKTRMIYFETPANPNMQLVDIAAVVEAVRGSDVLVVVDNTYCTPYLQRPLELGADLVVHSATKYLSGHGDITAGLVVGRKALVDRIRLEGLKDMTGAALSPHDAALLMRGIKTLALRMDRHCANALEVAQFLAGQPQVELIHYPGLPSFAQYELAQRQMRLPGGMIAFELKGGIEAGRGFMNALQLFARAVSLGDAESLAQHPASMTHSSYTPQERAHHGISEGLVRLSVGLEDVEDLLADIELALEACA
notes: also called FP
B2: L-methioninase from Pseudomonas putida (enzyme)
chain: MRDSHNNTGFSTRAIHHGYDPLSHGGALVPPVYQTATYAFPTVEYGAACFAGEEAGHFYSRISNPTLALLEQRMASLEGGEAGLALASGMGAITSTLWTLLRPGDELIVGRTLYGCTFAFLHHGIGEFGVKIHHVDLNDAKALKAAINSKTRMIYFETPANPNMQLVDIAAVVEAVRGSDVLVVVDNTYCTPYLQRPLELGADLVVHSATKYLSGHGDITAGLVVGRKALVDRIRLEGLKDMTGAALSPHDAALLMRGIKTLALRMDRHCANALEVAQFLAGQPQVELIHYPGLPSFAQYELAQRQMRLPGGMIAFELKGGIEAGRGFMNALQLFARAVSLGDAESLAQHPASMTHSSYTPQERAHHGISEGLVRLSVGLEDVEDLLADIELALEACA
notes: also called free L-methioninase

Columns and labels:
[1] = target: T1, urokinase receptor on MCF-7 human breast cancer cells (human, UniProt Q03405 23-305); assay: displacement assay on MCF-7 cells (summary of Example 1)
T1 construct: whole, on cells; also called uPA receptor; urokinase receptors
T1 sequence (Q03405 23-305): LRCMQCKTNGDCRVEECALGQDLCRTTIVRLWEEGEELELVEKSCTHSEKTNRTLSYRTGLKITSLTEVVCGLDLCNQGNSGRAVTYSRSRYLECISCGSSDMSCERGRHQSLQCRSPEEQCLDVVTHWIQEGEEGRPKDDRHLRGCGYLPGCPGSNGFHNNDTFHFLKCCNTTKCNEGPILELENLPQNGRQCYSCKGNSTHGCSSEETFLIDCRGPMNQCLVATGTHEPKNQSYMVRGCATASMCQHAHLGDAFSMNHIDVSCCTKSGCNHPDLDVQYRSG

[2] = target: T1, urokinase receptor on MCF-7 human …; assay: immunocytochemistry of MCF-7 cells with anti-L-methioninase antibody, 18 h treatment

Binder | binding result [1] | binding result [2]
B1 | binds | –
B2 | – | no binding (tested: 10^-6 M)
